Experimental data taken from publication PMC2185789 (The Journal of Experimental Medicine, 1980).

Biological target: C5b-8 complex (human, UniProt P01031 752-1676; P01031 19-673; P13671 22-934; P10643 23-843; P07357 31-584; …)
Experiment: negative-stain electron microscopy

binding result: binds
B1: C9 (natural protein)
chain: not shown
